Reference: patent US20260234222A1

Molecular target: SARS-CoV-2 BQ.1 Spike antigen (SARS-CoV-2 Omicron BQ.1)
Test: cell-based or functional assay

B1: Parental mAb 2 (antibody, V domains shown)
VH: QMQLMQSGAEVKKPGASVTVSCKASGDTFSDYRIHWVRQAPGQGLEWMGRMNPKSGDTNFAQKFQGRVTMTRDMSINTAYMTLSGLTFDDTALYYCASLLIVGGFDPLDDFEVWGQGTMVTISS
VL: QSALTQPPSASGSPGQSVTISCSGTSSDVGGYNFVSWYQHHPGKAPKILIYEVTKRPSGVPDRFSGSKSGNTASLTVSGLQAEDEADYYCSSYGGTNNLLFGGGTKLTVL
B1 showed a Pseudovirion neutralization IC50 of 10.1 µg/mL.
